Assay [1] deals with WIV1 spike protein (bat SARS-like coronavirus WIV1). The assay can be described thus: cell-based or functional assay.
Assay [2] deals with SARS-CoV-1 spike protein (SARS-CoV-1) (UniProt P59594). The assay can be described thus: cell-based or functional assay.
The target of assay [3] is HIV-1 Env peptide, biotinylated (negative control) (HIV-1). The assay can be described thus: DELFIA on captured biotin-peptide. Further details: unit not given beside the values.

The text below walks through data of patent US20240360203A1.

For Bebtelovimab (antibody), the pseudovirus neutralization Emax (% neutralization) came to 6.99 in assay [1] and 8 in assay [2].
In assay [3], “isotype control (palivizumab variable regions expressed as human IgG1 with LS mutation in the Fc region) (antibody)” displayed an AUC of 41500.
